System: MS2 coat protein
Assay: apparent KD of MS2 coat protein; designed switch direction (-1 OFF switch, 1 ON switch): 1; higher = weaker reporter binding
In short: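 Designed RNA switches with common flanks were made on Illumina chips by stalled E. coli RNA polymerase. Titration with SNAP-549-labelled MS2 coat protein doubled from 0.7 or 1.5 nM up to 3 µM. Apparent KD is each design's median over clusters after curve-fitting normalised fluorescence.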

[1] = Eterna round: R95, input ligand: FMN 200 uM
[2] = Eterna round: R95, input ligand: microRNA oligo, concentration not stated
[3] = Eterna round: R95, input ligand: none
[4] = input ligand: microRNA oligo, concentration not stated

Sequence	apparent KD of MS2 coat protein [1] [nM]	apparent KD of MS2 coat protein [2] [nM]	apparent KD of MS2 coat protein [3] [nM]	apparent KD of MS2 coat protein (input ligand: FMN 200 uM) [nM]	apparent KD of MS2 coat protein [4] [nM]	apparent KD of MS2 coat protein (input ligand: none) [nM]
UGGAUCUAGGCUUGCCUGGGUCCAUGUUGACAUGAGGAUCACCCAUGUGUAUUUUAUAAGCUUUUUGUUUGUCAACU [JL A Humble Attempt mod 8] (puzzle: Sensor for hsa-mir-208a)	25.7	12.8	28.4			
UGGCAACAUGAGGAUCACCCAUGUCAAACUAAUCGAGGAUAUGGGAACGAACAAGAGAAACUAGAAGGCGAACUUG [Altered State 1-11 - Jieux - Same State 1] (puzzle: Same State 1)	122	137	118			
UGGCUCAGACGAGGAUAUAUGUCUCGAGCUUCGGCUCGAGACAUGAGGAUCACCCAUGUAAUAACAUAGAAGGCGUCUGAGCCA [SSNG2/1-A2] (Eterna round: R96, puzzle: Same State NG 2)				22.1	25.2	37.2
UGGCUCAGACGAGGAUAUGAUCAUGGCGCUUCGGCGCAUACAUGAGGAUCACCCAUGUAAAGUGAUCAGAAGGCGUCUGAGCCA [SSNG2/7-A2] (Eterna round: R96, puzzle: Same State NG 2)				13.2	11.6	17.7
UGGCUCAGACUAGGAUAUAUGCGAUCACAUGAGGAUCACCCAUGUCUCGAGCUUCGGCUCGAGGCAUAGAAGGAGUCUGAGCCA [SSNG2/4-D2] (Eterna round: R96, puzzle: Same State NG 2)				14.4	34.6	56.5
UGGCUCAGAGCAGGAUAUACGUGGUCACAUGAGGAUCACCCAUGUCUCGAGCUUCGGCUCGAGGCGUAGAAGGGCUCUGAGCCA [SSNG2/6-B2] (Eterna round: R96, puzzle: Same State NG 2)				110	187	305
UGGCUGGUGCUAGGAUAUGCAUGAGGAAUCCUCGUAGAAGGAGCACGACAUGAGGAUCACCCAUGUAGCCGUCCGUAGACGGCU [salish99_SSNG1_r04_009] (Eterna round: R96, puzzle: Same State NG 1)				98.7	26.3	91.8
UGGUACAUGGGAGGAUAUCUCAUGGUGACAUGAGGAUCACCCAUGUAGUUGGACCGGAAACGGUGAGAGAAGGCCCAUGUACCU [JL SSNG1 3.74] (Eterna round: R96, puzzle: Same State NG 2)				72.1	68.3	95.9
UGGUACAUGGGAGGAUAUCUCGUAGAGACAUGAGGAUCACCCAUGUAGAUGGCCGGUAACCGGGAAGAGAAGGCCCAUGUACCU [JL SSNG1 3.66] (Eterna round: R96, puzzle: Same State NG 2)				203	56.1	82.6
UGGUACAUGGGAGGAUAUGGAGUUGAGACAUGAGGAUCACCCAUGUUAUAAAAGCCGAGAGGCAACUAGAAGGCCCAUGUACCU [JL SSNG1 3.92] (Eterna round: R96, puzzle: Same State NG 2)				10.2	49.9	62.9
UGGUACAUGGGAGGAUAUGGGCAAGAGACAUGAGGAUCACCCAUGUUAUAAAAGCCGAGAGGCAUCUAGAAGGCCCAUGUACCU [JL SSNG1 3.90] (Eterna round: R96, puzzle: Same State NG 2)				14.6	38.5	55.4
UGGUACAUGGGAGGAUAUGGGUUGAUGACAUGAGGAUCACCCAUGUUAAAUAUGCCGAGAGGCAACUAGAAGGCCCAUGUACCU [JL SSNG1 3.99] (Eterna round: R96, puzzle: Same State NG 2)				62.7	1320	1080
